The target of the assay is LC3 (Microtubule-associated protein 1A/1B-light chain 3) (UniProt Q9GZQ8 1-120). Nature of the assay: ITC; 100 µM LC3 titrated into 10 µM PfUIS3; MicroCal ITC 200, 25 °C; 50 mM sodium phosphate, 150 mM NaCl, pH 6.5; one-site binding model. The settings on record: both partners purified. (In general: ITC needs no label: the signal is the heat of the interaction.)

As a reminder, the Kd is the equilibrium constant for the complex coming apart.

B1: Plasmodium falciparum UIS3 (Upregulated in infective sporozoites 3) (natural protein)
chain: INKINLNKPIIENKNNVDVSIKRYNNFVDIARLSIQKHFEHLSNDQKDSHVNNMEYMQKFVQGLQENRNISLSKYQENKAVMDLKYHLQKVYANYLSQEEN
modifications: Construct limits are not given; the soluble domain is taken from PDB 2VWA, which the paper cites for PfUIS3. The His tag was removed with thrombin; the residual myc tag is left out.
For the molecule B1, the Kd was 2.15 ± 0.121 µM.

For the origin of these results see article PMC7677311, “Disrupting Plasmodium UIS3–host LC3 interaction with a small molecule causes parasite elimination from host cells” (Communications Biology, 2020).
